This passage reports Receptor Phosphorylation EC50 and Ki results from patent publication US20170240614A1.

Experiment [1] has as its target human insulin receptor isoform B (hIR-B) containing a C9 epitope tag at the C-terminus (human) (UniProt P06213). Description: cell-based or functional assay.
In experiment [2] the target is human insulin receptor isoform A (hIR-A) (human) (UniProt P06213). Briefly: competitive radioligand binding (SPA), [125I]-A14-insulin, hIR-A membranes.
For experiment [3], the target named is human insulin receptor isoform B (hIR-B) containing a C9 epitope tag at the C-terminus (human) (UniProt P06213). Briefly: competitive radioligand binding (SPA), [125I]-A14-insulin, hIR-B membranes.

In turn, “IGF-1 (from UniProt P05019 49-118) (ligand)” returned a Receptor Phosphorylation EC50 in experiment [1] of 253 nM. The Ki (as a rule, the dissociation constant of the complex between target and ligand, obtained from inhibition or displacement) in experiment [2] amounted to 4.1 nM; in experiment [3], 50.8 nM.
